Measurements as given in patent US20130209454A1.
Read-outs that look alike come from different tables or passages of the source.

Legend:
Assay in all cases: cell-based or functional assay
[1] = target: HIV-1 Env of strain ZM249M.PL1 (HIV-1)
[2] = target: HIV-1 Env of strain P0402_c2_11 (HIV-1)
[3] = target: HIV-1 Env of strain Q461.e2 (HIV-1)
[4] = target: HIV-1 Env of strain ZM233M.PB6 (HIV-1)
[5] = target: HIV-1 Env of strain TRO.11 (HIV-1)
[6] = target: HIV-1 Env of strain C1080.c03 (HIV-1)
[7] = target: HIV-1 Env of strain 1054_07_TC4_1499 (HIV-1)
[8] = target: HIV-1 Env of strain ZM247v1(Rev-) (HIV-1)
[9] = target: HIV-1 Env of strain WEAU_d15_410_787 (HIV-1)
[10] = target: HIV-1 Env of strain T278-50 (HIV-1)
[11] = target: HIV-1 Env of strain 6480.v4.c25 (HIV-1)
[12] = target: HIV-1 Env of strain Ce0393_C3 (HIV-1)
[13] = target: HIV-1 Env of strain X1193_c1 (HIV-1)
[14] = target: HIV-1 Env of strain 3016.v5.c45 (HIV-1)
[15] = target: HIV-1 Env of strain QH0692.42 (HIV-1)
[16] = target: HIV-1 Env of strain 211-9 (HIV-1)
[17] = target: HIV-1 Env of strain 3415.v1.c1 (HIV-1)
[18] = target: HIV-1 Env of strain REJO4541.67 (HIV-1)
[19] = target: HIV-1 Env of strain Du172.17 (HIV-1)
[20] = target: HIV-1 Env of strain CNE53 (HIV-1)
[21] = target: HIV-1 Env of strain R1166.c01 (HIV-1)
[22] = target: HIV-1 Env of strain PVO.4 (HIV-1)
[23] = target: HIV-1 Env of strain ZM109F.PB4 (HIV-1)
[24] = target: HIV-1 Env of strain ZM197M.PB7 (HIV-1)
[25] = target: HIV-1 Env of strain CAP45.2.00.G3 (HIV-1)
[26] = target: HIV-1 Env of strain TRO.11 (HIV-1); remark: listed apart in the source
[27] = target: HIV-1 Env of strain AC10.0.29 (HIV-1)
[28] = target: HIV-1 Env of strain SC422661.8 (HIV-1)
[29] = target: HIV-1 Env of strain CAP210.2.00.E8 (HIV-1)
[30] = target: HIV-1 strain Du172.17 envelope (gp120) (HIV-1)
[31] = target: HIV-1 strain P0402_c2_11 envelope (gp120) (HIV-1)
[32] = target: HIV-1 strain CNE17 envelope (gp120) (HIV-1)
[33] = target: HIV-1 strain Q23.17 envelope (gp120) (HIV-1)
[34] = target: HIV-1 strain 3103.v3.c10 envelope (gp120) (HIV-1)
[35] = target: HIV-1 strain TRJO4551.58 envelope (gp120) (HIV-1)
[36] = target: HIV-1 Env of strain 703357.C02 (HIV-1)
[37] = target: HIV-1 strain 6540.v4.c1 envelope (gp120) (HIV-1)
[38] = target: HIV-1 strain ZM135M.PL10a envelope (gp120) (HIV-1)
[39] = target: HIV-1 strain 3301.v1.c24 envelope (gp120) (HIV-1)
[40] = target: HIV-1 strain 6545.v4.c1 envelope (gp120) (HIV-1)
[41] = target: HIV-1 strain 211-9 envelope (gp120) (HIV-1)
[42] = target: HIV-1 strain T257-31 envelope (gp120) (HIV-1)
[43] = target: HIV-1 strain T278-50 envelope (gp120) (HIV-1)
[44] = target: HIV-1 strain 6480.v4.c25 envelope (gp120) (HIV-1)
[45] = target: HIV-1 strain C2101.c01 envelope (gp120) (HIV-1)
[46] = target: HIV-1 strain Du422.1 envelope (gp120) (HIV-1)
[47] = target: HIV-1 strain 928-28 envelope (gp120) (HIV-1)
[48] = target: HIV-1 strain 3415.v1.c1 envelope (gp120) (HIV-1)
[49] = target: HIV-1 strain R2184.04 envelope (gp120) (HIV-1)
[50] = target: HIV-1 strain 89-F1_2_25 envelope (gp120) (HIV-1)

B1: NIH45-46^G54W(HC), S28Y(LC) (antibody, V domains shown)
VH: QVRLSQSGGQMKKPGESMRLSCRASGYEFLNCPINWIRLAPGRRPEWMGWLKPRWGAVNYARKFQGRVTMTRDVYSDTAFLELRSLTSDDTAVYFCTRGKYCTARDYYNWDFEHWGRGAPVTVSS
VL: EIVLTQSPATLSLSPGETAIISCRTSQYGSLAWYQQRPGQAPRLVIYSGSTRAAGIPDRFSGSRWGADYNLSISNLESGDFGVYYCQQYEFFGQGTKVQVDI
- IC50, pseudovirus neutralization [1]: 1 ng/mL
- IC50, pseudovirus neutralization [2]: 0.01 µg/mL
- IC50, pseudovirus neutralization [3]: 0.034 µg/mL
- IC50, pseudovirus neutralization [4]: 0.011 µg/mL
- IC50, pseudovirus neutralization [5]: 0.02 µg/mL
- IC50, pseudovirus neutralization [6]: 0.154 µg/mL
- IC50, pseudovirus neutralization [7]: 0.104 µg/mL
- IC50, pseudovirus neutralization [8]: 1 ng/mL
- IC50, pseudovirus neutralization [9]: 8 ng/mL
- IC50, pseudovirus neutralization [10]: > 50 µg/mL
- IC50, pseudovirus neutralization [11]: 0.016 µg/mL
- IC50, pseudovirus neutralization [12]: 0.046 µg/mL
- IC50, pseudovirus neutralization [13]: 8 ng/mL
- IC50, pseudovirus neutralization [14]: 6 ng/mL
- IC50, pseudovirus neutralization [15]: 0.216 µg/mL
- IC50, pseudovirus neutralization [16]: 0.253 µg/mL
- IC50, pseudovirus neutralization [17]: 0.013 µg/mL
- IC50, pseudovirus neutralization [18]: 1 ng/mL
- IC50, pseudovirus neutralization [19]: 0.015 µg/mL
- IC50, pseudovirus neutralization [20]: 6 ng/mL
- IC50, pseudovirus neutralization [21]: 0.278 µg/mL
- IC50, pseudovirus neutralization [22]: 0.014 µg/mL
- IC50, pseudovirus neutralization [23]: 0.013 µg/mL
- IC50, pseudovirus neutralization [24]: 0.074 µg/mL

B2: NIH45-46^G54W IgG (antibody, name in Kabat numbering, V domains shown)
VH: QVRLSQSGGQMKKPGESMRLSCRASGYEFLNCPINWIRLAPGRRPEWMGWLKPRWGAVNYARKFQGRVTMTRDVYSDTAFLELRSLTSDDTAVYFCTRGKYCTARDYYNWDFEHWGRGAPVTVSS
VL: EIVLTQSPATLSLSPGETAIISCRTSQSGSLAWYQQRPGQAPRLVIYSGSTRAAGIPDRFSGSRWGADYNLSISNLESGDFGVYYCQQYEFFGQGTKVQVDI
- neutralization IC50 [25]: 6.6 µg/mL
- neutralization IC50 [26]: 0.09 µg/mL
- neutralization IC50 [27]: 0.2 µg/mL
- neutralization IC50 [28]: 0.03 µg/mL
- neutralization IC50 [29]: 41 µg/mL
- neutralization IC50 [1]: 2 ng/mL
- neutralization IC50 [2]: 3 ng/mL
- neutralization IC50 [3]: 9 ng/mL
- neutralization IC50 [4]: 0.02 µg/mL
- neutralization IC50 [5]: 0.04 µg/mL
- neutralization IC80 [30]: 42.9 µg/mL
- neutralization IC50 [6]: 0.2 µg/mL
- neutralization IC80 [31]: 0.023 µg/mL
- neutralization IC80 [32]: 0.127 µg/mL
- neutralization IC80 [33]: 0.03 µg/mL
- neutralization IC50 [7]: 0.04 µg/mL
- neutralization IC80 [34]: 0.56 µg/mL
- neutralization IC80 [35]: 0.05 µg/mL
- neutralization IC50 [8]: 0.32 µg/mL
- neutralization IC50 [36]: 3.43 µg/mL
- neutralization IC80 [37]: > 50 µg/mL
- neutralization IC80 [38]: 0.16 µg/mL
- neutralization IC80 [39]: 4 ng/mL
- neutralization IC50 [9]: < 1 ng/mL
- neutralization IC50 [10]: > 50 µg/mL
- neutralization IC50 [11]: 4 ng/mL
- neutralization IC50 [12]: 0.013 µg/mL
- neutralization IC80 [40]: > 50 µg/mL
- neutralization IC80 [41]: > 50 µg/mL
- neutralization IC50 [13]: < 1 ng/mL
- neutralization IC80 [42]: 0.45 µg/mL
- neutralization IC50 [14]: 1.47 µg/mL
- neutralization IC50 [15]: 0.37 µg/mL
- neutralization IC50 [16]: 16.4 µg/mL
- neutralization IC80 [43]: > 50 µg/mL
- neutralization IC50 [17]: < 1 ng/mL
- neutralization IC80 [44]: 0.021 µg/mL
- neutralization IC80 [45]: 0.17 µg/mL
- neutralization IC80 [46]: > 50 µg/mL
- neutralization IC50 [18]: 2 ng/mL
- neutralization IC80 [47]: 0.25 µg/mL
- neutralization IC50 [19]: 3.65 µg/mL
- neutralization IC80 [48]: 0.023 µg/mL
- neutralization IC50 [20]: < 1 ng/mL
- neutralization IC50 [21]: 0.13 µg/mL
- neutralization IC80 [49]: 0.036 µg/mL
- neutralization IC80 [50]: > 50 µg/mL
- neutralization IC50 [22]: 0.05 µg/mL
- neutralization IC50 [23]: 2 ng/mL
- neutralization IC50 [24]: 0.04 µg/mL
